The text below walks through data of PMC10881741, “Structural modifications toward improved lead-203/lead-212 peptide-based image-guided alpha-particle radiopharmaceutical therapies for neuroendocrine tumors” (European Journal of Nuclear Medicine and Molecular Imaging, 2023).

Read-outs that look alike come from different tables or passages of the source.

In data set [1] the target is T1, SSTR2 (Rattus norvegicus, UniProt P30680).
T1 construct: host or cells: AR42J rat pancreatic acinar cells
The experiment in a line: In vitro competitive binding assay ([^125I]I-TOC displacement in AR42J cells).
Experimental: SSTR2-positive AR42J rat pancreatic acinar cells were purchased from the American Type Culture Collection (ATCC; CRL-1492) and were cultured in RPMI 1640 medium, supplemented with 10% fetal bovine serum (FBS), 2 mM glutamine, and antibiotics (0.1 mg/mL streptomycin and 100 IU penicillin) at 37 °C under a humidified condition (5% CO2). The cells were plated into poly-D-lysine-coated 24-well plates at a density of 1.0 × 10^5 cells per well. […] Cells were then washed twice with ice-cold PBS and lysed with 0.5 N NaOH. The radioactivities of the harvested samples were measured using an automated gamma counter (PerkinElmer Cobra II; PerkinElmer, Freemont, CA). IC50 was determined using GraphPad Prism V8.0.

The nature of data set [2]: Stability in water and human serum (radio-HPLC). Conditions: ^203Pb-labeled, 37 °C, up to 24 h. In kind it is in vitro ADME. From the text:
New peptides were designed and synthesized using standard fluorenylmethyloxycarbonyl (Fmoc)-based solid phase peptide synthesis. The peptides were developed under two basic strategies: (a) a click cyclization approach to substitute the disulfide bond of TOC with a triazole link, which potentially improves PK and in vivo stability; and (b) Pb-specific structural optimization based on TOC by incorporating the new chelator composition and various sizes of PEG linkers (Fig. 1 and Table 1). […] The radiolabeling and purification process for the preparation of ^203Pb/^212Pb-labeled peptides followed the methods outlined in a previously published study. […] The stability of the most promising RPDC, [^203Pb]Pb-PSC-PEG2-TOC, was evaluated in water and normal human serum up to 24 h of incubation at 37 °C using the radio-HPLC system. Furthermore, PSC-PEG2-TOC was assessed for a radiolabeling yield with clinically relevant ^203Pb activity (1.8–3.6 GBq) to assess changes in performance with increases in molar activity (MBq/nmol; Supplementary Material).
PSC-PEG2-TOC was characterized for stability in water and human serum. […] The penetrate by centrifugation (serum samples) or the samples in water were analyzed by a radio-HPLC system (Agilent 1200 Series connected with an IN/US β-RAM Model 4 radio-detector) to monitor the degree of peptide degradation.

Data set [3] is described as follows: In vivo biodistribution of ^203Pb-labeled peptides. Also noted: species or system mice. Conditions: female, athymic nu/nu, mouse, intravenous, 37 kBq, total radioactivity; for tissue uptake at 3 h: 3 h post-administration; for tissue uptake at 24 h: 24 h post-administration; for tissue uptake at 1 h: 1 h post-administration. As to the method:
AR42J cells (5.0 × 10^6 cells/animal) were implanted subcutaneously on the left shoulder of female athymic nu/nu mice. […] Extra groups of mice were co-administered 37 kBq of ^203Pb-PSC-PEG2-TOC with DL-lysine (400 mg/kg) to determine the effect of amino acid on renal uptake of the radiopharmaceutical. Mice (n=3 per time point) were euthanized at 1, 3, and 24 h post-administration, and tumors and organs/tissues of interest were excised and weighed. The radioactivities of the samples were measured using the gamma counter.

The test system of data set [4] is midgut NETs. Also noted: method as in PMID 28076709, PMID 28428192. Conditions: patients with midgut NETs ref 5, 6; cited from earlier work.
The mark [5] stands for this setting: large intestine, read-out: Large intestine.
Where [6] appears, read: small intestine, read-out: Small intestine.

T1 sequence (P30680 whole entry): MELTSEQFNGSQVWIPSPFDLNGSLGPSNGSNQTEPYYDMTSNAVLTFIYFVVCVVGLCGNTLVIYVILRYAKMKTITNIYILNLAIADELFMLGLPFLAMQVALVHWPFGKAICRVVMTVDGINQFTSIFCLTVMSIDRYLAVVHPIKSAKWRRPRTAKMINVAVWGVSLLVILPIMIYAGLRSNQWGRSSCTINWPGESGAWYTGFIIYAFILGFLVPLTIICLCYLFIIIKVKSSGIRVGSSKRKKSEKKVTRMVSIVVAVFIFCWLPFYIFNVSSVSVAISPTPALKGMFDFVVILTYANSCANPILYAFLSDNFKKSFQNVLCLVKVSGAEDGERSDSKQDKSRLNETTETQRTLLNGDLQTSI

In the case of `C[C@@H](O)[C@@H]1NC(=O)[C@H](CCCCN)NC(=O)[C@@H](Cc2c[nH]c3ccccc23)NC(=O)[C@H](Cc2ccc(O)cc2)NC(=O)[C@@H](NC(=O)[C@@H](Cc2ccccc2)NC(=O)CCOCCOCCNC(=O)CN2CCN(CC(=O)O)CCN(CC(N)=O)CCN(CC(=O)O)CC2)CSSC[C@@H](C(=O)N[C@H](CO)[C@@H](C)O)NC1=O` [PSC-PEG2-TOC, PSC-PEG2-D-Phe-cyclo[Cys-Tyr-D-Trp-Lys-Thr-Cys]-Thr-OH], the “Improvement in affinity vs. DOTATOC (factor)” value in data set [1] is on record as more than 2. Further, the “Radiochemical and metabolic stability” value in data set [2] is listed as “robust radiochemical stability”.

Regarding `C[C@@H](O)[C@@H]1NC(=O)[C@H](CCCCN)NC(=O)[C@@H](Cc2c[nH]c3ccccc23)NC(=O)[C@H](Cc2ccc(O)cc2)NC(=O)[C@@H](NC(=O)[C@@H](Cc2ccccc2)NC(=O)CN2CCN(CC(=O)O)CCN(CC(=O)O)CCN(CC(=O)O)CC2)CSSC[C@@H](C(=O)N[C@H](CO)[C@@H](C)O)NC1=O` [[^203Pb]Pb-DOTATOC, metal not drawn, reference compound], the tissue uptake at 3 h worked out at 0.02 %ID/g in data set [3] (blood, read-out: Blood); 0.01 %ID/g in data set [3] (brain, read-out: Brain); 0.07 ± 0.05 %ID/g in data set [3] (heart, read-out: Heart); 14.6 ± 2.34 %ID/g in data set [3] (kidneys, read-out: Kidneys); 1.11 ± 0.74 %ID/g in data set [3] (setting [5]); 0.16 ± 0.02 %ID/g in data set [3] (liver, read-out: Liver). Moreover, the tissue uptake at 3 h in data set [3] (lung, read-out: Lung) amounted to 0.59 ± 0.23 %ID/g; in data set [3] (muscle, read-out: Muscle), 0.04 ± 0.01 %ID/g; in data set [3] (setting [6]), 1.78 ± 2.19 %ID/g; in data set [3] (tumor, read-out: Tumor), 4.47 ± 0.75 %ID/g. The tissue uptake at 24 h in data set [3] (blood, read-out: Blood) is 0.01 %ID/g; in data set [3] (brain, read-out: Brain), 0.01 %ID/g; in data set [3] (heart, read-out: Heart) it was 0.02 ± 0.01 %ID/g; in data set [3] (kidneys, read-out: Kidneys), 7.6 %ID/g; in data set [3] (setting [5]), 0.17 ± 0.04 %ID/g; in data set [3] (liver, read-out: Liver), 0.08 ± 0.01 %ID/g. For the same compound, the tissue uptake at 24 h amounted to 0.27 ± 0.04 %ID/g in data set [3] (lung, read-out: Lung); 0.02 %ID/g in data set [3] (muscle, read-out: Muscle); 0.08 ± 0.06 %ID/g in data set [3] (setting [6]); 0.1 ± 0.01 %ID/g in data set [3] (spleen, read-out: Spleen); 2.44 ± 0.19 %ID/g in data set [3] (tumor, read-out: Tumor). The tissue uptake at 1 h in data set [3] (brain, read-out: Brain) is 0.03 ± 0.01 %ID/g; in data set [3] (kidneys, read-out: Kidneys) it was 12.2 %ID/g; in data set [3] (setting [5]), 0.32 ± 0.12 %ID/g; in data set [3] (liver, read-out: Liver) it was 0.28 ± 0.05 %ID/g; in data set [3] (lung, read-out: Lung), 0.91 ± 0.41 %ID/g; in data set [3] (muscle, read-out: Muscle), 0.1 ± 0.03 %ID/g. The tissue uptake at 1 h was found to be 1.91 ± 0.8 %ID/g in data set [3] (setting [6]); 0.27 ± 0.05 %ID/g in data set [3] (spleen, read-out: Spleen); 4.6 ± 0.18 %ID/g in data set [3] (tumor, read-out: Tumor).

With [^177Lu]Lu-DOTATATE, in data set [4], the Complete response rate is 1% and the Objective responses was 18–30%.
